Where no end group is shown, it is not given here. [ ]: non-standard residue; d: D form.

Experiment [1] has as its target human FOXP3 tagged with 6 histidines at the C terminus (human) (UniProt Q9BZS1). Description: AlphaScreen competition, His-tagged FOXP3 (400 nM) / GST-tagged FOXP3 (40 nM, competitor); peptide at 20 µM. For orientation: Bead proximity is the source of the signal in Alpha formats.
For experiment [2] the target is unchanged. Nature of the experiment: SPR (ProteOn XPR36), FOXP3-6His immobilized on GLM chip, peptide 1-20 µM injected; ratio to p60 (SEQ ID NO: 1).
The target of experiment [3] is T1, Foxp3 in murine CD25+ Treg cells (mouse, UniProt Q99JB6 1-417).
T1 sequence (looked up): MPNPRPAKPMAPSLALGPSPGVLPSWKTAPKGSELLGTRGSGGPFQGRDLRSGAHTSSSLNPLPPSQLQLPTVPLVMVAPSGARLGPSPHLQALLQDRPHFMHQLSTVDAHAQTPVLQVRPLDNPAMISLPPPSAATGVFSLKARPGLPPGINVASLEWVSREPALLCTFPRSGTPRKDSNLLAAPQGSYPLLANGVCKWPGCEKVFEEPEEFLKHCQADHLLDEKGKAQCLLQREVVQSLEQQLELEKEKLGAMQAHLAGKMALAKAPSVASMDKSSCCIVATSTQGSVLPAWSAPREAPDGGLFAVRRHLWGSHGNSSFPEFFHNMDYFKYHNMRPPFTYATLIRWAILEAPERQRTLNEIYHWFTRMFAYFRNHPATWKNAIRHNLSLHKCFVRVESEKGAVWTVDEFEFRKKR
Nature of the experiment: cell-based or functional assay.

Experiment [4] has as its target GST-FOXP3 (GST fused to the isoform A from human FOXP3 gene) (human) [GST: P08515]. Description: AlphaScreen competition, GST-FOXP3 (100 nM) / His-Runx1 (46 nM, competitor); peptide at 100 µM.
For experiment [5], the target named is human FOXP3 tagged with 6 histidines at the C terminus (human) (UniProt Q9BZS1). Nature of the experiment: AlphaScreen competition, His-tagged FOXP3 (400 nM) / GST-tagged FOXP3 (40 nM, competitor); peptide at 100 µM.
Chain of human FOXP3 tagged with 6 histidines at the C terminus (human) (Q9BZS1 other isoform, or with tags, fused parts or gaps): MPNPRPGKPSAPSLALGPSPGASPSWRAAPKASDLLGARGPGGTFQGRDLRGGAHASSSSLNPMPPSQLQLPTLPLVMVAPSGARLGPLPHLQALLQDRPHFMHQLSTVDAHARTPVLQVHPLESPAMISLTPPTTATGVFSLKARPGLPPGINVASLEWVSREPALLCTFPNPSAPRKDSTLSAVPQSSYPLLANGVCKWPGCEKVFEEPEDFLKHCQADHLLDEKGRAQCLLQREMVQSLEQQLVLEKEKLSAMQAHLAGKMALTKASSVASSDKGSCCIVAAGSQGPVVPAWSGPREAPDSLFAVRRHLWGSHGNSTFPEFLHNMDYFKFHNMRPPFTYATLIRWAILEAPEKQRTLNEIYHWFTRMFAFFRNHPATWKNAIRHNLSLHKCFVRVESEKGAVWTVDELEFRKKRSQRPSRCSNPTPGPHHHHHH
Experiment [6] concerns the target T1, Foxp3 in murine CD25+ Treg cells. Nature of the experiment: cell-based or functional assay. This is another data set of the same source.
The target in experiment [7] is GST-FOXP3 (GST fused to the isoform A from human FOXP3 gene) (human) [GST: P08515]. Description: AlphaScreen competition, GST-FOXP3 (100 nM) / His-Runx1 (46 nM, competitor); peptide at 2.5 µM.
Chain of GST-FOXP3 (GST fused to the isoform A from human FOXP3 gene) (human) [GST: P08515] (P08515 1-218, tags or fused parts left off): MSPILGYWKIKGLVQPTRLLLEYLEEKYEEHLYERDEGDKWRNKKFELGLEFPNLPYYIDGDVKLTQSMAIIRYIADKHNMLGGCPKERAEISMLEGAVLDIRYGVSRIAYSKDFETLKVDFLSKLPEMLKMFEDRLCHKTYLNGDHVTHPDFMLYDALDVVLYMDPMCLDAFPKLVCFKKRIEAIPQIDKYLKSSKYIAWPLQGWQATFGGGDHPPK

B1: peptide of SEQ ID NO: 2 (peptide)
peptide: Ac-GRDFQSFRKMWPFFAM-NH2
Molecule B1 registered a Dimerization inhibition % inhibition in experiment [1] of 80%. Also, the Ratio binding Peptide/p60 (fold change) in experiment [2] was 2.4 fold change.

B2: peptide of SEQ ID NO: 5 (peptide)
peptide: RAFQSFRKMWPFFAM
B2: in experiment [3], the “Treg inhibition-% inhibition (100 µM)” value came out at 347%. Further, the Foxp3-Runx1 Inhibition % inhibition in experiment [4] turned out to be 76%. Further, the Ratio binding Peptide/p60 (fold change) in experiment [2] came out at 4.1 fold change. The Dimerization inhibition % inhibition in experiment [5] came out at 74.3%.

B3: peptide of SEQ ID NO: 45 (peptide)
peptide: Ac-GRAFQAFRKMWAFFAM-NH2
As to B3, the “IC50 (µM) of inhibition of Treg activity, in vitro Treg suppression assay (murine Tconv + Treg, anti-CD3, [3H]-thymidine)” value (“IC50 (µM) of inhibition of Treg activity” for short) in experiment [6] is 3 µM. Further, the Ratio binding Peptide/p60 (fold change) in experiment [2] was determined as 8 fold change.

B4: peptide of SEQ ID NO: 46 (peptide)
peptide: H-[dR]AFQSFRKMWPFFAM-OH
SMILES: CSCC[C@H](NC(=O)[C@H](C)NC(=O)[C@H](Cc1ccccc1)NC(=O)[C@H](Cc1ccccc1)NC(=O)[C@@H]1CCCN1C(=O)[C@H](Cc1c[nH]c2ccccc12)NC(=O)[C@H](CCSC)NC(=O)[C@H](CCCCN)NC(=O)[C@H](CCCNC(=N)N)NC(=O)[C@H](Cc1ccccc1)NC(=O)[C@H](CO)NC(=O)[C@H](CCC(N)=O)NC(=O)[C@H](Cc1ccccc1)NC(=O)[C@H](C)NC(=O)[C@H](N)CCCNC(=N)N)C(=O)O
Consider B4, for which, in experiment [6], the “IC50 (µM) of inhibition of Treg activity” value is 12.5 µM. In experiment [7], this molecule came in with a Foxp3-Runx1 Inhibition % inhibition of 95%. The same molecule displayed a Dimerization inhibition % inhibition in experiment [1] of 90%. Also, in experiment [2], the Ratio binding Peptide/p60 (fold change) was 2.7 fold change.

B5: peptide of SEQ ID NO: 30 (peptide)
peptide: RDFQSFRKMWAFFAM
For B5, the “Treg inhibition-% inhibition (100 µM)” value in experiment [3] is 170%. In experiment [4], this molecule gave a Foxp3-Runx1 Inhibition % inhibition of 73.9%. In addition, in experiment [2], the Ratio binding Peptide/p60 (fold change) stood at 1.1 fold change. In experiment [5], this molecule gave a Dimerization inhibition % inhibition of 81.3%.

B6: peptide of SEQ ID NO: 41 (peptide)
peptide: Ac-GRAFQAFRKMWPFFAM-NH2
For B6, the “IC50 (µM) of inhibition of Treg activity” value in experiment [6] worked out at 1.9 µM. Moreover, in experiment [2], the Ratio binding Peptide/p60 (fold change) stood at 3.7 fold change.

B7: peptide of SEQ ID NO: 47 (peptide)
peptide: RAFQSFRKMWPFFA[dM]
On to B7, for which the “IC50 (µM) of inhibition of Treg activity” value in experiment [6] is 35 µM. For the same molecule, the Foxp3-Runx1 Inhibition % inhibition in experiment [7] worked out at 75%. For the same molecule, the Ratio binding Peptide/p60 (fold change) in experiment [2] worked out at 1.7 fold change.

B8: peptide of SEQ ID NO: 19 (peptide)
peptide: RDFQAFRKMWPFFAM
Regarding B8, in experiment [3], the “Treg inhibition-% inhibition (100 µM)” value was determined as 160%. The Foxp3-Runx1 Inhibition % inhibition in experiment [4] came to 74.7%. For the same molecule, the Ratio binding Peptide/p60 (fold change) in experiment [2] was 1.1 fold change. The molecule also yielded a Dimerization inhibition % inhibition in experiment [5] of 89%.

B9: peptide of SEQ ID NO: 13 (peptide)
peptide: Ac-GRAFQSFRKMWPFFAM-NH2
Consider B9, for which the “IC50 (µM) of inhibition of Treg activity” value in experiment [6] is 12.5 µM. Moreover, the Ratio binding Peptide/p60 (fold change) in experiment [2] was 3.2 fold change.

B10: peptide of SEQ ID NO: 48 (peptide)
peptide: [dR]AFQSFRKMWPFFA[dM]
As to B10, the “IC50 (µM) of inhibition of Treg activity” value in experiment [6] is 20 µM. Also, the Foxp3-Runx1 Inhibition % inhibition in experiment [7] worked out at 70%. The Ratio binding Peptide/p60 (fold change) in experiment [2] stood at 2.5 fold change.

B11: cyclic peptide SEQ ID NO: 50 (peptide)
peptide: RAFQAFRKMWPFFAM
modifications: head-to-tail cyclic: linker L is C(=O) between the N-terminal amino group of residue 1 and the alpha carbon of residue 15
With B11, the “IC50 (µM) of inhibition of Treg activity” value in experiment [6] amounted to 0.8 µM. The same molecule showed a Foxp3-Runx1 Inhibition % inhibition in experiment [7] of 60%. Further, in experiment [2], the Ratio binding Peptide/p60 (fold change) came to 21.4 fold change.

B12: p60 (peptide of SEQ ID NO: 1) (peptide)
peptide: RDFQSFRKMWPFFAM
For B12, the “IC50 (µM) of inhibition of Treg activity” value in experiment [6] came out at 38.3 µM. Further, in experiment [3], the “Treg inhibition-% inhibition (100 µM)” value amounted to 116%. Moreover, the Foxp3-Runx1 Inhibition % inhibition in experiment [4] turned out to be 54.5%. Also, the Ratio binding Peptide/p60 (fold change) in experiment [2] amounted to 1 fold change. The same molecule came in with a Dimerization inhibition % inhibition in experiment [5] of 59.7%.

B13: peptide of SEQ ID NO: 15 (peptide)
peptide: RDAQSFRKMWPFFAM
For B13, the Foxp3-Runx1 Inhibition % inhibition in experiment [4] stood at 55.6%. For the same molecule, the Ratio binding Peptide/p60 (fold change) in experiment [2] was 1.1 fold change.

B14: peptide of SEQ ID NO: 4 (peptide)
peptide: Ac-GR[dD]FQSFRKMWPFFAM-NH2
SMILES: CSCC[C@H](NC(=O)[C@H](C)NC(=O)[C@H](Cc1ccccc1)NC(=O)[C@H](Cc1ccccc1)NC(=O)[C@@H]1CCCN1C(=O)[C@H](Cc1c[nH]c2ccccc12)NC(=O)[C@H](CCSC)NC(=O)[C@H](CCCCN)NC(=O)[C@H](CCCNC(=N)N)NC(=O)[C@H](Cc1ccccc1)NC(=O)[C@H](CO)NC(=O)[C@H](CCC(N)=O)NC(=O)[C@H](Cc1ccccc1)NC(=O)[C@@H](CC(=O)O)NC(=O)[C@H](CCCNC(=N)N)NC(=O)CNC(C)=O)C(N)=O
On to B14, for which the “IC50 (µM) of inhibition of Treg activity” value in experiment [6] came to 13.4 µM. The Ratio binding Peptide/p60 (fold change) in experiment [2] amounted to 4.2 fold change.

B15: peptide of SEQ ID NO: 14 (peptide)
peptide: Ac-GR[dA]FQSFRKMWPFFAM-NH2
SMILES: CSCC[C@H](NC(=O)[C@H](C)NC(=O)[C@H](Cc1ccccc1)NC(=O)[C@H](Cc1ccccc1)NC(=O)[C@@H]1CCCN1C(=O)[C@H](Cc1c[nH]c2ccccc12)NC(=O)[C@H](CCSC)NC(=O)[C@H](CCCCN)NC(=O)[C@H](CCCNC(=N)N)NC(=O)[C@H](Cc1ccccc1)NC(=O)[C@H](CO)NC(=O)[C@H](CCC(N)=O)NC(=O)[C@H](Cc1ccccc1)NC(=O)[C@@H](C)NC(=O)[C@H](CCCNC(=N)N)NC(=O)CNC(C)=O)C(N)=O
As for B15, the “IC50 (µM) of inhibition of Treg activity” value in experiment [6] came to 12.5 µM. This molecule had a Foxp3-Runx1 Inhibition % inhibition in experiment [7] of 80%. The Dimerization inhibition % inhibition in experiment [1] amounted to 90%. Also, the Ratio binding Peptide/p60 (fold change) in experiment [2] was found to be 3.6 fold change.

The values above are taken from patent US20190276496A1 (FUNDACI N PARA LA INVESTIGACI N M DICA APLICADA, published 2019).
